Laboratory results as given in publication PMC6255772.

Assays:
IGF-TRAP-3.3 (human) = IGF-TRAP-3.3 (human) (UniProt P08069); test: SPR; BioRad ProteOn, GLC chip; about 1200 RU IGF-TRAP captured on immobilised goat anti-human Fc antibody; ligands 320-3.95 nM injected in triplicates, 120 s association, 600 s dissociation; PBST, 25 °C; 1:1 binding model
IGF-TRAP-3.1 (human) = IGF-TRAP-3.1 (human) (UniProt P08069); test: as above
[1] = target: recombinant human IGF-2 (human); test: SPR; competition with immobilized MEDI-573; conditions: Fc fusion

fold lower affinity than for the IGF ligands (IGF-TRAP-3.3 (human))	fold lower affinity than for the IGF ligands (IGF-TRAP-3.1 (human))	Substance	IC50 [1]
1000 fold	1000 fold	human insulin (ligand)	–
–	–	IGF-TRAP-3.3 (from UniProt P08069 31-736; P08069 741-935; P01857 1-328)	6.44 nM
